For assay [1], the target named is T1, 14-3-3 Saccharomyces cerevisiae isoform BMH2, His-tagged (Saccharomyces cerevisiae, UniProt P34730 1-273).
T1 sequence (looked up): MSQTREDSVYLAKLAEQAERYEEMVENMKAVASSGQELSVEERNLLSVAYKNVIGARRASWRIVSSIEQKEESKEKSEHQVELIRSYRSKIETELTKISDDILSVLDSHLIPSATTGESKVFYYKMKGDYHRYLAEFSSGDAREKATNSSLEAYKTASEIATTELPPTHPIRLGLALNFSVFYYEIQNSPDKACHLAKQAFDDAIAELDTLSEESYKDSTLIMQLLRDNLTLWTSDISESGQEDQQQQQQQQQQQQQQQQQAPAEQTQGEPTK
As to the kind of experiment: pull-down.

Assay [2] addresses T2, 14-3-3 Saccharomyces cerevisiae isoform BMH1, His-tagged (Saccharomyces cerevisiae, UniProt P29311 1-267).
T2 sequence (looked up): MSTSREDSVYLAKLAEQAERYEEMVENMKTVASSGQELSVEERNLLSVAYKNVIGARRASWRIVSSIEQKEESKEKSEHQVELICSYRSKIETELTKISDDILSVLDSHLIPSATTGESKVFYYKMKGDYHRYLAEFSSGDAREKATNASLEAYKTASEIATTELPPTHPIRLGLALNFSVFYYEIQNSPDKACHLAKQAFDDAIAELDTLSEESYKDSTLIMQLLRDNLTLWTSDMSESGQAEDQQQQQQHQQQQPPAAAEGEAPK
As to the kind of experiment: pull-down.

The source of these data is article PMC2171568 (The Journal of Cell Biology, 2005).

Non-standard residues stand in square brackets, D forms with d. No end group written: not given here. pS = N[C@@H](COP(=O)(O)O)C(=O)O

For ARAA[pS]APA [peptide ARAApSAPA], the binding result in assay [1] and in assay [2] was “binds” in each case.
